The values below come from US20120282285.

The target of data set [1] is mannose-binding lectin (MBL), P11226.
Chain of mannose-binding lectin (MBL), P11226 (P11226 21-248): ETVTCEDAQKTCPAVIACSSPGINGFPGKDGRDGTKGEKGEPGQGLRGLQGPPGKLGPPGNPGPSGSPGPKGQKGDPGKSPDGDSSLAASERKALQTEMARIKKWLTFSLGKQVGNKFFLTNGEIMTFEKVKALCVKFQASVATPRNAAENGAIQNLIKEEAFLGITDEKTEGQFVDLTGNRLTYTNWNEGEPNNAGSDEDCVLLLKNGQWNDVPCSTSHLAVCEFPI

Chain of Ficolin-3, O75636 (O75636 24-299): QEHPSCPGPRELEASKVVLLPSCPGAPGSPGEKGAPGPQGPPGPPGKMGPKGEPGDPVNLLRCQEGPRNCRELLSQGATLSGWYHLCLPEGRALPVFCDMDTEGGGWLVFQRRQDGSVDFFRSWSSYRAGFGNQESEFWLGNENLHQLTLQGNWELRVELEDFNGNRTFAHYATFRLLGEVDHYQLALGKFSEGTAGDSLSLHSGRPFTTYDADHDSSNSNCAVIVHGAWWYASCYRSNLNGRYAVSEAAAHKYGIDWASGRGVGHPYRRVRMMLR

B1: MBL-Associated Serine Protease-1 (MASP-1) (protein)
chain: HTVELNNMFGQIQSPGYPDSYPSDSEVTWNITVPDGFRIKLYFMHFNLESSYLCEYDYVKVETEDQVLATFCGRETTDTEQTPGQEVVLSPGSFMSITFRSDFSNEERFTGFDAHYMAVDVDECKEREDEELSCDHYCHNYIGGYYCSCRFGYILHTDNRTCRVECSDNLFTQRTGVITSPDFPNPYPKSSECLYTIELEEGFMVNLQFEDIFDIEDHPEVPCPYDYIKIKVGPKVLGPFCGEKAPEPISTQSHSVLILFHSDNSGENRGWRLSYRAAGNECPELQPPVHGKIEPSQAKYFFKDQVLVSCDTGYKVLKDNVEMDTFQIECLKDGTWSNKIPTCKIVDCRAPGELEHGLITFSTRNNLTTYKSEIKYSCQEPYYKMLNNNTGIYTCSAQGVWMNKVLGRSLPTCLPVCGLPKFSRKLMARIFNGRPAQKGTTPWIAMLSHLNGQPFCGGSLLGSSWIVTAAHCLHQSLDPEDPTLRDSDLLSPSDFKIILGKHWRLRSDENEQHLGVKHTTLHPQYDPNTFENDVALVELLESPVLNAFVMPICLPEGPQQEGAMVIVSGWGKQFLQRFPETLMEIEIPIVDHSTCQKAYAPLKKKVTRDMICAGEKEGGKDACAGDSGGPMVTLNRERGQWYLVGTVSWGDDCGKKDRYGVYSYIHHNKDWIQRVTGVRN
Regarding B1, in data set [1], the “complement activation (C3 and C4)” value is “MASP-1 were able to activate both the C3 and C4 complement proteins”.

B2: MBL-Associated Serine Protease-2 (MASP-2) (protein)
chain: TPLGPKWPEPVFGRLASPGFPGEYANDQERRWTLTAPPGYRLRLYFTHFDLELSHLCEYDFVKLSSGAKVLATLCGQESTDTERAPGKDTFYSLGSSLDITFRSDYSNEKPFTGFEAFYAAEDIDECQVAPGEAPTCDHHCHNHLGGFYCSCRAGYVLHRNKRTCSALCSGQVFTQRSGELSSPEYPRPYPKLSSCTYSISLEEGFSVILDFVESFDVETHPETLCPYDFLKIQTDREEHGPFCGKTLPHRIETKSNTVTITFVTDESGDHTGWKIHYTSTAQPCPYPMAPPNGHVSPVQAKYILKDSFSIFCETGYELLQGHLPLKSFTAVCQKDGSWDRPMPACSIVDCGPPDDLPSGRVEYITGPGVTTYKAVIQYSCEETFYTMKVNDGKYVCEADGFWTSSKGEKSLPVCEPVCGLSARTTGGRIYGGQKAKPGDFPWQVLILGGTTAAGALLYDNWVLTAAHAVYEQKHDASALDIRMGTLKRLSPHYTQAWSEAVFIHEGYTHDAGFDNDIALIKLNNKVVINSNITPICLPRKEAESFMRTDDIGTASGWGLTQRGFLARNLMYVDIPIVDHQKCTAAYEKPPYPRGSVTANMLCAGLESGGKDSCRGDSGGALVFLDSETERWFVGGIVSWGSMNCGEAGQYGVYTKVINYIPWIENIISDF
As to B2, in the data set with Ficolin-3, O75636, the “C4 deposition (OD490-650nm), AcBSA/rFicolin-3 with Ficolin-3 deficient serum” value was “Application of rMASP-2 resulted in a strong positive dose dependent enhancement of the C4 deposition via both the Ficolin-3 and MBL activation pathways (FIGS. 25B and 25E)”. In data set [1], the “C4 deposition (OD490-650nm), mannan/rMBL with MBL deficient serum” value is “Application of rMASP-2 resulted in a strong positive dose dependent enhancement of the C4 deposition via both the Ficolin-3 and MBL activation pathways (FIGS. 25B and 25E)”; the “complement activation (C3 and C4)” value is “MASP-2 were able to strongly activate both the C3 and C4 complement proteins”.
